System: neonatal mouse calvaria
Experiment: Neonatal calvaria organ culture assay (histomorphometry)
Type: cell-based
Method: Applicants used mouse neonatal calvaria organ culture assay to examine possible roles for Ccdc80 in bone formation/resorption. Neonatal mouse calvaria were prepared from 4-day-old pups as described previously (Traianedes K et al., Endocrinology 139:3178-84 (1998); Mundy G et al., Science 286:1946-49 (1999)). Briefly, calvaria were excised and cut in half along the sagittal suture. Each half calvaria was placed with the concave surface downward on a stainless steel grid (Small Parts, Inc., Miami, Fla.) in a 12-well tissue culture dish (Becton Dickinson, Oxnard, Calif.). Calvaria were pre-incubated overnight in serum-free BGJ medium with 0.1% BSA. Each well contained 1 ml of BGJ medium. After pre-incubation, calvaria were incubated for 7 days in BGJ medium containing 1% FBS without or with test samples. Calvaria in 12-well plates were incubated in a humidified atmosphere of 95% air and 5% CO2. Fresh test samples were added at the time of medium change on day 4.
After organ culture, calvaria were fixed in 10% neutral phosphate-buffered formaldehyde at room temperature for 72 hours, then decalcified for 5-6 hours in 10% EDTA in PBS. Calvaria in each group were embedded in parallel in the same paraffin block, and 4 μm sections were stained with hematoxylin-eosin. Consistent bone areas (200 μm away from frontal sutures) were selected for histomorphometric analysis. In brief, a 200 μm square grid was placed on each calvaria, and the number of osteoblasts and total bone area were determined with the Osteomeasure System (Osteometrics Inc., Atlanta, Ga.). All cells on the bone surface were counted as osteoblasts.
For this experiment, calvaria were prepared from 4-day old neonatal pups. Calvaria then were incubated for 7 days without (Control), or with serial dilutions of FLAG-purified Ccdc80 protein as shown in FIG. 4. Medium was changed on day 4. After organ culture, calvaria were fixed in 10% neutral phosphate buffered formaldehyde, embedded in paraffin block, sectioned at 4 μm, and stained with hematoxylin and Eosin for histomorphoemetric analysis.

[1] = 1% FLAG-purified Ccdc80 protein, 7 days

B1: FLAG-purified Ccdc80 protein: C-terminally FLAG-tagged human Ccdc80 purified from conditioned medium using anti-FLAG M2 affinity beads (protein)
chain: EPHPHATIRGSHGGRKVPLVSPDSSRPARFLRHTGRSRGIERSTLEEPNLQPLQRRRSVPVLRLARPTEPPARSDINGAAVRPEQRPAARGSPREMIRDEGSSARSRMLRFPSGSSSPNILASFAGKNRVWVISAPHASEGYYRLMMSLLKDDVYCELAERHIQQIVLFHQAGEEGGKVRRITSEGQILEQPLDPSLIPKLMSFLKLEKGKFGMVLLKKTLQVEERYPYPVRLEAMYEVIDQGPIRRIEKIRQKGFVQKCKASGVEGQVVAEGNDGGGGAGRPSLGSEKKKEDPRRAQVPPTRESRVKVLRKLAATAPALPQPPSTPRATTLPPAPATTVTRSTSRAVTVAARPMTTTAFPTTQRPWTPSPSHRPPTTTEVITARRPSVSENLYPPSRKDQHRERPQTTRRPSKATSLESFTNAPPTTISEPSTRAAGPGRFRDNRMDRREHGHRDPNVVPGPPKPAKEKPPKKKAQDKILSNEYEEKYDLSRPTASQLEDELQVGNVPLKKAKESKKHEKLEKPEKEKKKKMKNENADKLLKSEKQMKKSEKKSKQEKEKSKKKKGGKTEQDGYQKPTNKHFTQSPKKSVADLLGSFEGKRRLLLITAPKAENNMYVQQRDEYLESFCKMATRKISVITIFGPVNNSTMKIDHFQLDNEKPMRVVDDEDLVDQRLISELRKEYGMTYNDFFMVLTDVDLRVKQYYEVPITMKSVFDLIDTFQSRIKDMEKQKKEGIVCKEDKKQSLENFLSRFRWRRRLLVISAPNDEDWAYSQQLSALSGQACNFGLRHITILKLLGVGEEVGGVLELFPINGSSVVEREDVPAHLVKDIRNYFQVSPEYFSMLLVGKDGNVKSWYPSPMWSMVIVYDLIDSMQLRRQEMAIQQSLGMRCPEDEYAGYGYHSYHQGYQDGYQDDYRHHESYHHGYPY
modifications: left off: small tags and cut ends
bone resorption (histologically) [1]: enhanced | number of osteoblasts [1]: not significantly altered | osteoblast activation [1]: activated | increase in total bone area (1% FLAG-purified Ccdc80 protein, 7 days, P<0.0001): 62% | osteogenic activities (purified protein sample diluted as low as 0.01%, 7 days): clearly observed | number of osteoblasts (summary) (summary statement): unaltered | osteoblast activation (summary) (summary statement): activated osteoblasts
